Measured values: US20260116991A1 (HAINAN SIMCERE ZAIMING PHARMACEUTICAL, published 2026)
Numbering of substitutions follows the chain as printed. Values belong to the binder of their own block, whether it stands above or below them.

Assays:
human GPC3-His protein = target: T1, human GPC3-His protein (human, UniProt P51654 25-559); assay: SPR, antibody captured on Protein A chip, human GPC3-His analyte;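 note: measured at 25 °C flow cell, human GPC3-His injected at five concentrations up to 200 nM, 240 s association, up to 600 s dissociation, double-referenced, fitted to Langmuir 1:1 model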
T1 construct: also called human GPC3 protein; not shown: His tag

[1] = target: T2, monkey GPC3 on HEK293T-monkey GPC3 cells (monkey); assay: FACS on HEK293T-monkey GPC3 cells;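 note: flow cytometry binding of test antibodies to the cells, read as mean fluorescence intensity, with half-maximal concentration taken from fitted curves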
T2 construct: whole, on cells
Procedure: The desired cells were expanded to a logarithmic growth phase in a T-75 cell culture flask, the medium was removed by pipetting, and the cells were washed twice with a PBS buffer, and digested with trypsin. Then a complete medium was added to stop the digestion, and the cells were blown into a single cell suspension. After counting, the cells were centrifuged, and the cell pellet was resuspended with an FACS buffer (PBS+2% fetal bovine serum) to 2×10⁶ cells/mL. The cell resuspension solution was added to a 96-well FACS reaction plate at 50 μl/well, and a chimeric antibody sample to be tested was added at 50 μl/well for incubation at 4° C. for 1 h. […] After the plate was centrifuged and washed 3 times with a PBS buffer, 100 μl of the resulting solution was assayed and analyzed by FACS (FACS Canto™, purchased from BD Biosciences). Data analysis was performed by software (FlowJo) to obtain the mean fluorescence intensity (MFI) of the cells. Then, analysis was performed by software (GraphPad Prism8), data were fitted, and EC₅₀ values were calculated.

monkey GPC3-His protein [2] = target: T3, monkey GPC3-His protein (monkey); assay: SPR, antibody captured on Protein A chip, monkey GPC3-His analyte;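 note: run at 25 °C with 240 s association and up to 600 s dissociation, double-referenced, kinetics fitted to a 1:1 Langmuir binding model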
T3 construct: Bought recombinant protein; also called monkey GPC3 protein
Procedure: The flow cell was set at 25° C. The sample block was set at 16° C. Both were pretreated with the running buffer. In each cycle, first, the antibody to be tested was captured using the Protein A chip, and then a single concentration of GPC3 antigen protein was injected. […] The association was determined by injecting different concentrations of human GPC3-His in the solution and maintaining for 240 s, wherein the flow rate was 30 μL/min, and the protein was diluted at a 1:1 dilution ratio from 200 nM to obtain 5 concentrations in total. The dissociation phase was monitored for up to 600 s and triggered by switching from the sample solution to the running buffer. The surface was regenerated by washing with 10 mM glycine solution (pH 1.5) at a flow rate of 30 μL/min for 30 s. The difference in bulk refractive index was corrected by subtracting the responses obtained from the goat anti-human Fc surface. Blank injections (double reference) were also subtracted. To calculate the apparent KD and other kinetic parameters, the Langmuir 1:1 model was used.

monkey GPC3-His protein [3] = target: T3, monkey GPC3-His protein; assay: ELISA, monkey GPC3-His coated;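 note: Plate-coated antigen at 1 µg/mL, antibody binding 2 h at 37 °C, detected with HRP-labeled secondary antibody and TMB, absorbance at 450 nm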

Kd (human GPC3-His protein): 0.271 nM
koff (human GPC3-His protein): 6.91e-05 s⁻¹
kon (human GPC3-His protein): 255000 M⁻¹ s⁻¹
EC50 [1]: 0.29 nM
Max MFI [1]: 6320 MFI
Kd (monkey GPC3-His protein [2]): 0.1 nM
koff (monkey GPC3-His protein [2]): 4.65e-05 s⁻¹
kon (monkey GPC3-His protein [2]): 464000 M⁻¹ s⁻¹
OD450 at 0.0001 nM (monkey GPC3-His protein [3]): 0.05 OD450
OD450 at 0.001 nM (monkey GPC3-His protein [3]): 0.06 OD450
OD450 at 0.01 nM (monkey GPC3-His protein [3]): 0.12 OD450
OD450 at 0.1 nM (monkey GPC3-His protein [3]): 0.51 OD450
OD450 at 1 nM (monkey GPC3-His protein [3]): 1 OD450
OD450 at 10 nM (monkey GPC3-His protein [3]): 1.11 OD450
OD450 at 100 nM (monkey GPC3-His protein [3]): 1.49 OD450
B1: F1.21.8 (antibody, human IgG1, kappa, V domains shown)
VH: EVQLQQSGPELVKPGASVKISCKTSGFLFTGHYMHWVKSSHGNILDWIGYIYPYNAISFYNQKFKGKATLTVDKSSNTAYMELRSLTSEDSAVYYCARGDYGNYVTAYWGQGTLVTVSA
VL: DVLMTQTPLSLPVSLGDQASISCRSSQSIVHSSGNTYLEWYLQKPGQSPKLLIYKVSNRFSGVPDRFSGSGSGTDFTLKISRVEAEDLGVYYCFQGSHLPWTFGGGTKLDIKR
notes: Human-murine chimeric antibody

Kd (human GPC3-His protein): 9.04 nM
koff (human GPC3-His protein): 0.000314 s⁻¹
kon (human GPC3-His protein): 34700 M⁻¹ s⁻¹
Kd (monkey GPC3-His protein [2]): 6.61 nM
koff (monkey GPC3-His protein [2]): 0.000317 s⁻¹
kon (monkey GPC3-His protein [2]): 48000 M⁻¹ s⁻¹
OD450 at 0.0001 nM (monkey GPC3-His protein [3]): 0.04 OD450
OD450 at 0.001 nM (monkey GPC3-His protein [3]): 0.25 OD450
OD450 at 0.01 nM (monkey GPC3-His protein [3]): 0.3 OD450
OD450 at 0.1 nM (monkey GPC3-His protein [3]): 0.72 OD450
OD450 at 1 nM (monkey GPC3-His protein [3]): 1.39 OD450
OD450 at 10 nM (monkey GPC3-His protein [3]): 1.53 OD450
OD450 at 100 nM (monkey GPC3-His protein [3]): 1.5 OD450
B2: F1.9.19 (antibody, human IgG1, kappa, V domains shown)
VH: DVQLQESGPGLVKPSQSLSLTCSVTGYSITSGYYWNWIRQFPGNRLEWMAYISYDGINNYNPSLKNRISIARDTSTNQFFLKLNSVTSEDTATYYCATTTEVALFDHWGQGTTLTVSS
VL: B1 VL with M4L, S28N, S32G, S33N, Y41F, V90L, G96A, L99V, D110E
notes: as for B1

EC50 [1]: 0.51 nM
Max MFI [1]: 9880 MFI
OD450 at 0.0001 nM (monkey GPC3-His protein [3]): 0.05 OD450
OD450 at 0.001 nM (monkey GPC3-His protein [3]): 0.07 OD450
OD450 at 0.01 nM (monkey GPC3-His protein [3]): 0.27 OD450
OD450 at 0.1 nM (monkey GPC3-His protein [3]): 1.36 OD450
OD450 at 1 nM (monkey GPC3-His protein [3]): 2.27 OD450
OD450 at 10 nM (monkey GPC3-His protein [3]): 2.64 OD450
OD450 at 100 nM (monkey GPC3-His protein [3]): 1.99 OD450
B3: F2.169.2 (antibody, human IgG1, kappa, V domains shown)
VH: EVQLVETGGGLVQPKGSLKLSCAASGFSFNTNAMNWVRQAPGKGLEWVARIRSKSNNYATYYADSVKDRFTISRDDSQSMLYLQMNNLKTEDTAMYYCVRDGYYVLFAYWGQGTLVTVSA
VL: B1 VL with S25F, H31N, S33N, Y41F, L99V, W101F, G105T, D110E
notes: as for B1

Kd (human GPC3-His protein): 2.37 nM
koff (human GPC3-His protein): 0.00017 s⁻¹
kon (human GPC3-His protein): 71600 M⁻¹ s⁻¹
EC50 [1]: 1.1 nM
Max MFI [1]: 4740 MFI
Kd (monkey GPC3-His protein [2]): 1.25 nM
koff (monkey GPC3-His protein [2]): 0.000156 s⁻¹
kon (monkey GPC3-His protein [2]): 125000 M⁻¹ s⁻¹
OD450 at 0.0001 nM (monkey GPC3-His protein [3]): 0.05 OD450
OD450 at 0.001 nM (monkey GPC3-His protein [3]): 0.05 OD450
OD450 at 0.01 nM (monkey GPC3-His protein [3]): 0.07 OD450
OD450 at 0.1 nM (monkey GPC3-His protein [3]): 0.27 OD450
OD450 at 1 nM (monkey GPC3-His protein [3]): 0.86 OD450
OD450 at 10 nM (monkey GPC3-His protein [3]): 1.03 OD450
OD450 at 100 nM (monkey GPC3-His protein [3]): 1.55 OD450
B4: F1.2.14 (antibody, human IgG1, kappa, V domains shown)
VH: RVQLQQSGAELVKPGASVRMSCKASGYTFTAYSIEWMKQNLGKSLEWIGNFRPYNDDTKYNENFKGRATLTVEKSSATVYLELSRLTSDDSAVYYCARSGPTDYFDYWGQGTTLIVSS
VL: DIQMTQSPASLSASVGETVTITCRASDNIYSYLAWYQQKQGQSPQLLVYNAKTLAEGVPSRFSGSGSVTQFSLKIISLQPEDFGTYYCQHHFGTPRTFGGGTKLEIKR
notes: as for B1

Kd (human GPC3-His protein): 2.54 nM
koff (human GPC3-His protein): 7.28e-05 s⁻¹
kon (human GPC3-His protein): 28700 M⁻¹ s⁻¹
Kd (monkey GPC3-His protein [2]): 1.24 nM
koff (monkey GPC3-His protein [2]): 4.74e-05 s⁻¹
kon (monkey GPC3-His protein [2]): 38200 M⁻¹ s⁻¹
OD450 at 0.0001 nM (monkey GPC3-His protein [3]): 0.04 OD450
OD450 at 0.001 nM (monkey GPC3-His protein [3]): 0.05 OD450
OD450 at 0.01 nM (monkey GPC3-His protein [3]): 0.16 OD450
OD450 at 0.1 nM (monkey GPC3-His protein [3]): 0.56 OD450
OD450 at 1 nM (monkey GPC3-His protein [3]): 1.52 OD450
OD450 at 10 nM (monkey GPC3-His protein [3]): 1.7 OD450
OD450 at 100 nM (monkey GPC3-His protein [3]): 1.82 OD450
B5: F1.3.9 (antibody, human IgG1, kappa, V domains shown)
VH: QVQLQQPGTELVKPGASVKLSCKASGYTFTSYWIHWVKQRPGQGLEWIGNINPPNAGTNYNEKFKSKATLTVDKSSSTAYMQLSSLTSEDSAVYYCARGRWLLHDYWGQGTTLTVSS
VL: DIQMTQSPASLSISVGETVTITCRASENIYSNLAWYQQKQGKSPQLLVYGTKNLAEGVPSRFSGSGSGTQYSLKINSLQSEDFGNYYCQHFWGTPYTFGGGTKLEILR
notes: as for B1

Kd (human GPC3-His protein): 46 nM
koff (human GPC3-His protein): 0.00129 s⁻¹
kon (human GPC3-His protein): 28000 M⁻¹ s⁻¹
Kd (monkey GPC3-His protein [2]): 44 nM
koff (monkey GPC3-His protein [2]): 0.00156 s⁻¹
kon (monkey GPC3-His protein [2]): 35500 M⁻¹ s⁻¹
OD450 at 0.0001 nM (monkey GPC3-His protein [3]): 0.21 OD450
OD450 at 0.001 nM (monkey GPC3-His protein [3]): 0.36 OD450
OD450 at 0.01 nM (monkey GPC3-His protein [3]): 0.39 OD450
OD450 at 0.1 nM (monkey GPC3-His protein [3]): 0.56 OD450
OD450 at 1 nM (monkey GPC3-His protein [3]): 0.64 OD450
OD450 at 10 nM (monkey GPC3-His protein [3]): 0.66 OD450
OD450 at 100 nM (monkey GPC3-His protein [3]): 1.06 OD450
B6: F1.62.9 (antibody, human IgG1, kappa, V domains shown)
VH: QVQLQQSDAELVKPGASVKISCKVSGYIFTDHTIHWMKQRPEQGLEWIGYIYPRDGSIKYNENFKGKATLTADKSSSATYMQLNSLTSEDSAVYFCARPIYYDYAYYFDYWGQGTTLTVSS
VL: DVVMTQSPLSLPVSLGDQASISCRSRQSLVHSNGNTYLHWYLQKPGQSPKVLIYKVSNRFSGVPDRFSGSGSGTDFTLKISRVEAEDLGVYFCSQSTHVPYTFGGGTKLEIKR
notes: as for B1
